B1: G1/S-specific cyclin-D3 (Homo sapiens), P30281 (parent)
chain: MELLCCEGTRHAPRAGPDPRLLGDQRVLQSLLRLEERYVPRASYFQCVQREIKPHMRKMLAYWMLEVCEEQRCEEEVFPLAMNYLDRYLSCVPTRKAQLQLLGAVCMLLASKLRETTPLTIEKLCIYTDHAVSPRQLRDWEVLVLGKLKWDLAAVIAHDFLAFILHRLSLPRDRQALVKKHAQTFLALCATDYTFAMYPPSMIATGSIGAAVQGLGACSMSGDELTELLAGITGTEVDCLRACQEQIEAALRESLREASQTSSSPAPKAPRGSSSQGPSQTSTPTDVTAIHL
partner: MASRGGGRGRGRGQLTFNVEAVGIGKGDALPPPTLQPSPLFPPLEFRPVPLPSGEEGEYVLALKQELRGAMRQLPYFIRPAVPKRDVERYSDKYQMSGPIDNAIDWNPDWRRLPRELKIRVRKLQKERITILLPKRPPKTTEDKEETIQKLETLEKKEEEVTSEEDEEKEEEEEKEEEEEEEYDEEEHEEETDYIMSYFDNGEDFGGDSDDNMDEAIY
B2: Protein LDOC1 (Homo sapiens), O95751 (parent)
chain: MVDELVLLLHALLMRHRALSIENSQLMEQLRLLVCERASLLRQVRPPSCPVPFPETFNGESSRLPEFIVQTASYMLVNENRFCNDAMKVAFLISLLTGEAEEWVVPYIEMDSPILGDYRAFLDEMKQCFGWDDDEDDDDEEEEDDY
partner: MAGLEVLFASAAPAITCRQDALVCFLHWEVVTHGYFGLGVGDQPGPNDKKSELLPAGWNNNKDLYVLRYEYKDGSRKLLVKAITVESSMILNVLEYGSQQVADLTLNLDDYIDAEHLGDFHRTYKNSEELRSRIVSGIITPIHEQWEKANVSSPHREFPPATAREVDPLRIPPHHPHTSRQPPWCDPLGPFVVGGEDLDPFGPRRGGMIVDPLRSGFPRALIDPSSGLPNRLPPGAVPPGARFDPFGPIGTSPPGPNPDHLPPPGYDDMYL
B3: Aminoacylase-1 (Homo sapiens), Q03154 (parent)
chain: MTSKGPEEEHPSVTLFRQYLRIRTVQPKPDYGAAVAFFEETARQLGLGCQKVEVAPGYVVTVLTWPGTNPTLSSILLNSHTDVVPVFKEHWSHDPFEAFKDSEGYIYARGAQDMKCVSIQYLEAVRRLKVEGHRFPRTIHMTFVPDEEVGGHQGMELFVQRPEFHALRAGFALDEGIANPTDAFTVFYSERSPWWVRVTSTGRPGHASRFMEDTAAEKLHKVVNSILAFREKEWQRLQSNPHLKEGSVTSVNLTKLEGGVAYNVIPATMSASFDFRVAPDVDFKAFEEQLQSWCQAAGEGVTLEFAQKWMHPQVTPTDDSNPWWAAFSRVCKDMNLTLEPEIMPAATDNRYIRAVGVPALGFSPMNRTPVLLHDHDERLHEAVFLRGVDIYTRLLPALASVPALPSDS
partner: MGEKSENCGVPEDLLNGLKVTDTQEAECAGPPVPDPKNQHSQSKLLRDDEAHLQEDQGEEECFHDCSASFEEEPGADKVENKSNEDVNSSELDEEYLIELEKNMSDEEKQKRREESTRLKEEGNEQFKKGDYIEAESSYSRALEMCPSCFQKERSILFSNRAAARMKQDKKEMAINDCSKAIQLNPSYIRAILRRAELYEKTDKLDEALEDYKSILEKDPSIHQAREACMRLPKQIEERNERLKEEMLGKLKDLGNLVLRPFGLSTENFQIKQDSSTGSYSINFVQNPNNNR
B4: Probable RNA-binding protein EIF1AD (Homo sapiens), Q8N9N8 (parent)
chain: MSQATKRKHVVKEVLGEHIVPSDQQQIVRVLRTPGNNLHEVETAQGQRFLVSMPSKYRKNIWIKRGDFLIVDPIEEGEKVKAEISFVLCKDHVRSLQKEGFWPEAFSEVAEKHNNRNRQTQPELPAEPQLSGEESSSEDDSDLFVNTNRRQYHESEEESEEEEAA
partner: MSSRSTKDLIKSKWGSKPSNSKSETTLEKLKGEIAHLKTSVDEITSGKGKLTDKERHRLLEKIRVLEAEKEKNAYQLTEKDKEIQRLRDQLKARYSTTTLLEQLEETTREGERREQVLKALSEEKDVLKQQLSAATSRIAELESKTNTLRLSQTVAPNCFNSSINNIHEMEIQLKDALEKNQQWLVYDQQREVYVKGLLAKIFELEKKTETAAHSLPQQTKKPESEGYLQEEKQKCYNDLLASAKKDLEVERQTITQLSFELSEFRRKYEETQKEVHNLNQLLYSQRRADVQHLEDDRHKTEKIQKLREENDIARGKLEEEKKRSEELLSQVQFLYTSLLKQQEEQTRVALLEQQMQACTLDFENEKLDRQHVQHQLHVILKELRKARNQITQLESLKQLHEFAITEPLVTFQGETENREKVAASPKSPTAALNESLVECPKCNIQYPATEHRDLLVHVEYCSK
B5: Tuftelin-interacting protein 11 (Homo sapiens), Q9UBB9 (parent)
chain: MSLSHLYRDGEGRIDDDDDERENFEITDWDLQNEFNPNRQRHWQTKEEATYGVWAERDSDDERPSFGGKRARDYSAPVNFISAGLKKGAAEEAELEDSDDEEKPVKQDDFPKDFGPRKLKTGGNFKPSQKGFAGGTKSFMDFGSWERHTKGIGQKLLQKMGYVPGRGLGKNAQGIINPIEAKQRKGKGAVGAYGSERTTQSMQDFPVVDSEEEAEEEFQKELSQWRKDPSGSKKKPKYSYKTVEELKAKGRISKKLTAPQKELSQVKVIDMTGREQKVYYSYSQISHKHNVPDDGLPLQSQQLPQSGKEAKAPGFALPELEHNLQLLIDLTEQEIIQNDRQLQYERDMVVNLFHELEKMTEVLDHEERVISNLSKVLEMVEECERRMQPDCSNPLTLDECARIFETLQDKYYEEYRMSDRVDLAVAIVYPLMKEYFKEWDPLKDCTYGTEIISKWKSLLENDQLLSHGGQDLSADAFHRLIWEVWMPFVRNIVTQWQPRNCDPMVDFLDSWVHIIPVWILDNILDQLIFPKLQKEVENWNPLTDTVPIHSWIHPWLPLMQARLEPLYSPIRSKLSSALQKWHPSDSSAKLILQPWKDVFTPGSWEAFMVKNIVPKLGMCLGELVINPHQQHMDAFYWVIDWEGMISVSSLVGLLEKHFFPKWLQVLCSWLSNSPNYEEITKWYLGWKSMFSDQVLAHPSVKDKFNEALDIMNRAVSSNVGAYMQPGARENIAYLTHTERRKDFQYEAMQERREAENMAQRGIGVAASSVPMNFKDLIETKAEEHNIVFMPVIGKRHEGKQLYTFGRIVIYIDRGVVFVQGEKTWVPTSLQSLIDMAK
partner: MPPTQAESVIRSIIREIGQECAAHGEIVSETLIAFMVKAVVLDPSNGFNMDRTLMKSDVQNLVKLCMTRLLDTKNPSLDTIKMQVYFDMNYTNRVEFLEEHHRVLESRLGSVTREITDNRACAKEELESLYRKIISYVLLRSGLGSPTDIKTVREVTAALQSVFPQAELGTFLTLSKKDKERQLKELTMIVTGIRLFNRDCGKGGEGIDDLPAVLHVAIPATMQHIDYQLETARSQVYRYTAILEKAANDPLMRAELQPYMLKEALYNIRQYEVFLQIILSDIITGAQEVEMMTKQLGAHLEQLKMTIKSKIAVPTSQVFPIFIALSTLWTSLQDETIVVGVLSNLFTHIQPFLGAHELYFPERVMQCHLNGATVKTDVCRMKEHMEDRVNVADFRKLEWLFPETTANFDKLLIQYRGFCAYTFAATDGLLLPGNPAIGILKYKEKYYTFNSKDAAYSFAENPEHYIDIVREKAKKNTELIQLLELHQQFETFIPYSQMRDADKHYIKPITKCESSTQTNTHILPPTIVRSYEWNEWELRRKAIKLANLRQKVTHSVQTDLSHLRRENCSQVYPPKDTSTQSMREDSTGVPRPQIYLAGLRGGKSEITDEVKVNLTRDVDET

Variants of: B1
Settings: with rpc7l_human POLR3GL

| Variant | effect of a mutation on the interaction |
| --- | --- |
| E253D | with no effect |

Variants of: B2
Settings: with psmf1_human PSMF1, Q92530

| Variant | effect of a mutation on the interaction |
| --- | --- |
| L12H | disrupting interaction strength |

Variants of: B3
Settings: with ttc1_human TTC1, Q99614

| Variant | effect of a mutation on the interaction |
| --- | --- |
| R197W | disrupting interaction strength |

Variants of: B4
Settings: with cep55_human CEP55, Q53EZ4

| Variant | effect of a mutation on the interaction |
| --- | --- |
| R48C | with no effect |

Variants of: B5
Settings: with cf206_human CFAP206, Q8IYR0

| Variant | effect of a mutation on the interaction |
| --- | --- |
| R8Q | with no effect |
| S688L | with no effect |
